Measured values published in the supplement of paper PMC9112550, “Optimization of the antimicrobial peptide Bac7 by deep mutational scanning” (BMC Biology, 2022).

Tested on: Escherichia coli TOP10
Test: shrunken log2 fold change of peptide-encoding DNA abundance (4.5 h post-induction vs induction); higher = less antimicrobial activity (less host growth inhibition)
Conditions: time post-induction: 4.5 h; library: site-saturation at positions 5, 18, 19, 20
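Also: peptides expressed intracellularly from a pBAD plasmid library in pooled LB shake-flask culture, induced with 0.3% L-arabinose, DNA abundance read by NGS, three biological replicates, DESeq2 with apeglm shrinkage.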

Sequence | shrunken log2 fold change
RRIRRRPPRLPRPRPRPGDGPRP | 0.467
RRIRVRPPRLPRPRPRPCQEPRP | -0.68
RRIRIRPPRLPRPRPRPTKPPRP | -0.0472
RRIRRRPPRLPRPRPRPARPPRP | 0.703
RRIRGRPPRLPRPRPRPTNTPRP | 0.676
RRIRGRPPRLPRPRPRPVMFPRP | 0.451
RRIRMRPPRLPRPRPRPLHFPRP | -0.0889
RRIRERPPRLPRPRPRPYYWPRP | -0.192
RRIRMRPPRLPRPRPRPVAGPRP | 1.31
RRIRDRPPRLPRPRPRPYWYPRP | 0.00534
RRIRGRPPRLPRPRPRPNTPPRP | 0.237
RRIRWRPPRLPRPRPRPAKRPRP | -0.0468
RRIRFRPPRLPRPRPRPYHRPRP | 0.045
RRIRMRPPRLPRPRPRPVKCPRP | -0.0525
RRIRSRPPRLPRPRPRPTWTPRP | 0.764
RRIRRRPPRLPRPRPRPFETPRP | -0.207
RRIRWRPPRLPRPRPRPICVPRP | -0.12
RRIRTRPPRLPRPRPRPDWTPRP | -0.179
RRIRFRPPRLPRPRPRPPGDPRP | 0.58
RRIRHRPPRLPRPRPRPHIAPRP | -0.0808
RRIRWRPPRLPRPRPRPLNGPRP | -0.0406
RRIRPRPPRLPRPRPRPAVFPRP | 0.373
RRIRIRPPRLPRPRPRPAEPPRP | -0.21
RRIRPRPPRLPRPRPRPYTCPRP | -0.179
RRIRWRPPRLPRPRPRPDGFPRP | -0.0231

Sequence | shrunken log2 fold change
RRIRHRPPRLPRPRPRPTRQPRP | 0.254
RRIRHRPPRLPRPRPRPNWSPRP | -0.0165
RRIRRRPPRLPRPRPRPAHDPRP | 0.873
RRIRYRPPRLPRPRPRPIRPPRP | -0.129
RRIRFRPPRLPRPRPRPILHPRP | -0.75
RRIRPRPPRLPRPRPRPTKTPRP | 0.132
RRIRARPPRLPRPRPRPWIDPRP | -0.0113
RRIRSRPPRLPRPRPRPVNPPRP | -0.118
RRIRTRPPRLPRPRPRPYFIPRP | -0.872
RRIRYRPPRLPRPRPRPYMDPRP | -0.14
RRIRHRPPRLPRPRPRPRIYPRP | -0.584
RRIRARPPRLPRPRPRPIPYPRP | -0.0777
RRIRDRPPRLPRPRPRPMTEPRP | 0.0462
RRIRGRPPRLPRPRPRPKFIPRP | -0.425
RRIRLRPPRLPRPRPRPFKWPRP | 0.00989
RRIRPRPPRLPRPRPRPVEDPRP | 0.0885
RRIRQRPPRLPRPRPRPAAKPRP | -0.0272
RRIRNRPPRLPRPRPRPHCYPRP | 0.0691
RRIRDRPPRLPRPRPRPEVAPRP | 0.563
RRIRWRPPRLPRPRPRPIFRPRP | 0.0199
RRIRIRPPRLPRPRPRPMASPRP | -0.00783
RRIRDRPPRLPRPRPRPEKPPRP | -0.173
RRIRRRPPRLPRPRPRPAEPPRP | 0.723
RRIRVRPPRLPRPRPRPQLMPRP | -0.224
RRIRMRPPRLPRPRPRPSQKPRP | 0.246

Sequence | shrunken log2 fold change
RRIRWRPPRLPRPRPRPFTAPRP | -0.0343
RRIRKRPPRLPRPRPRPNLYPRP | -0.111
RRIRERPPRLPRPRPRPSHDPRP | -0.118
RRIRLRPPRLPRPRPRPECEPRP | 0.147
RRIRSRPPRLPRPRPRPEINPRP | 0.0112
RRIRARPPRLPRPRPRPMKHPRP | -0.00244
RRIRSRPPRLPRPRPRPFRVPRP | 0.166
RRIRVRPPRLPRPRPRPSFAPRP | 0.0593
RRIRPRPPRLPRPRPRPQVEPRP | 0.102
RRIRSRPPRLPRPRPRPQYTPRP | -0.983
RRIRKRPPRLPRPRPRPAHHPRP | -0.00814
RRIRQRPPRLPRPRPRPPEAPRP | 0.243
RRIRWRPPRLPRPRPRPMENPRP | 0.0913
RRIRKRPPRLPRPRPRPHFWPRP | 0.188
RRIRGRPPRLPRPRPRPPELPRP | 1.18
RRIRWRPPRLPRPRPRPGSWPRP | 0.517
RRIRTRPPRLPRPRPRPSTFPRP | -0.49
RRIRNRPPRLPRPRPRPQRGPRP | 0.237
RRIRMRPPRLPRPRPRPYWFPRP | -0.131
RRIRPRPPRLPRPRPRPYVEPRP | -0.415
RRIRMRPPRLPRPRPRPSRRPRP | 0.189
RRIRSRPPRLPRPRPRPLSCPRP | 0.0284
RRIRWRPPRLPRPRPRPINQPRP | -0.0913
RRIRQRPPRLPRPRPRPQEKPRP | 0.0313
RRIRSRPPRLPRPRPRPHVWPRP | 0.0587

Sequence | shrunken log2 fold change
RRIRHRPPRLPRPRPRPKARPRP | -0.00317
RRIRNRPPRLPRPRPRPAMAPRP | 0.0129
RRIRQRPPRLPRPRPRPIDFPRP | -0.0381
RRIRPRPPRLPRPRPRPLAPPRP | 0.33
RRIRMRPPRLPRPRPRPHQWPRP | 0.121
RRIRQRPPRLPRPRPRPWYAPRP | -0.134
RRIRNRPPRLPRPRPRPWRAPRP | 0.0962
RRIRVRPPRLPRPRPRPFDMPRP | -0.16
RRIRQRPPRLPRPRPRPRTHPRP | 0.167
RRIRIRPPRLPRPRPRPRNRPRP | -0.125
RRIRHRPPRLPRPRPRPHWYPRP | -0.347
RRIRGRPPRLPRPRPRPARWPRP | 0.998
RRIRSRPPRLPRPRPRPTLVPRP | 0.366
RRIRTRPPRLPRPRPRPQADPRP | -0.297
RRIRQRPPRLPRPRPRPMFMPRP | -0.0688
RRIRNRPPRLPRPRPRPKKIPRP | -0.187
RRIRQRPPRLPRPRPRPRVRPRP | 0.329
RRIRTRPPRLPRPRPRPFQSPRP | 0.00942
RRIRYRPPRLPRPRPRPNNFPRP | -0.418
RRIRQRPPRLPRPRPRPVCQPRP | -0.0856
RRIRMRPPRLPRPRPRPRNRPRP | 0.687
RRIRCRPPRLPRPRPRPADDPRP | 0.116
RRIRTRPPRLPRPRPRPKHLPRP | -0.233
RRIRHRPPRLPRPRPRPIRYPRP | 0.0301
RRIRERPPRLPRPRPRPGTAPRP | -0.0769

Sequence | shrunken log2 fold change
RRIRMRPPRLPRPRPRPHLQPRP | 0.0376
RRIRFRPPRLPRPRPRPSAGPRP | 0.192
RRIRRRPPRLPRPRPRPPWEPRP | 0.0894
RRIRGRPPRLPRPRPRPKRVPRP | 0.198
RRIRDRPPRLPRPRPRPVHWPRP | 0.31
RRIRGRPPRLPRPRPRPIREPRP | -0.0123
RRIRYRPPRLPRPRPRPWGVPRP | -0.242
RRIRKRPPRLPRPRPRPHPAPRP | 0.429
RRIRWRPPRLPRPRPRPAVSPRP | 0.127
RRIRIRPPRLPRPRPRPQSAPRP | 0.0313
RRIRYRPPRLPRPRPRPKSIPRP | -0.0776
RRIRTRPPRLPRPRPRPTGQPRP | 0.031
RRIRERPPRLPRPRPRPVPYPRP | -0.132
RRIRARPPRLPRPRPRPGERPRP | 0.56
RRIRVRPPRLPRPRPRPCIYPRP | -0.533
RRIRGRPPRLPRPRPRPWAYPRP | -0.151
RRIRFRPPRLPRPRPRPCWCPRP | -0.00345
RRIRQRPPRLPRPRPRPAWKPRP | 0.0232
RRIRRRPPRLPRPRPRPMIQPRP | 0.107
RRIRERPPRLPRPRPRPMKIPRP | 0.0286
RRIRMRPPRLPRPRPRPLRGPRP | 2.15
RRIRKRPPRLPRPRPRPKSCPRP | 0.00967
RRIRDRPPRLPRPRPRPKCWPRP | -0.00042
RRIRFRPPRLPRPRPRPGHTPRP | -0.445
RRIRSRPPRLPRPRPRPVWLPRP | -0.388
